Data published in PMC6796740.

Target: human transferrin receptor (hTfR, hTfR1) extracellular domain (Homo sapiens, UniProt P02786 89-760)
Experiment: SPR

human transferrin receptor (hTfR, hTfR1) extracellular domain, sequence (P02786 89-760): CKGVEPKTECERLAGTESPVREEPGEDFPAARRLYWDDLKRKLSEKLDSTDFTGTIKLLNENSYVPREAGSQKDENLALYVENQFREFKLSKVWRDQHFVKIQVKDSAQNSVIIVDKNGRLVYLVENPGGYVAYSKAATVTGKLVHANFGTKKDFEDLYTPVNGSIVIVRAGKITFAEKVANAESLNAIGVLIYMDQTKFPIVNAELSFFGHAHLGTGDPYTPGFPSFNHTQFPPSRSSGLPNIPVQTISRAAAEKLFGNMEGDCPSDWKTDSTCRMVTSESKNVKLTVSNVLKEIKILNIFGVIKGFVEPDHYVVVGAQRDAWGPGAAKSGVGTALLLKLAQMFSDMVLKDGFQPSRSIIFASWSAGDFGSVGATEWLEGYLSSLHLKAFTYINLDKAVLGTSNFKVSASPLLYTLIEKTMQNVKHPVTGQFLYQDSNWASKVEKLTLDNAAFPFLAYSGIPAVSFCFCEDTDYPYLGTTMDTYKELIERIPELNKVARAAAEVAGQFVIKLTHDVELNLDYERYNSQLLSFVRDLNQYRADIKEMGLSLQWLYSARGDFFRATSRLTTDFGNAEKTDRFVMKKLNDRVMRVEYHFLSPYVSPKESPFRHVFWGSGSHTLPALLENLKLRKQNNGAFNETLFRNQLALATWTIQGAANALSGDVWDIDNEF

Binder	binding result
AAUGCGUUCACGUUUAUUCACAUUUUUGAAUU (structured_RNA, 2'-F pyrimidines presumed, not restated for truncates) [TR14 ST1-2 (32 nt)]	no binding
GCUCAAUGCGUUCACGUUUAUUCACAUUUUUGAAUUGAGC (structured_RNA, 2'-F pyrimidines presumed, not restated for truncates) [TR14 ST1-1 (40 nt)]	no binding
